Percent positive cells data for one substance are collected here from US6376459.

The assay deals with CD40CR (CD40 counter-receptor), 39 kD membrane protein of activated murine helper T cells (murine) (UniProt P27548). Kind of assay: flow cytometry on activated Th, FITC-RG7 detection. (In general: A flow cytometer gives signals particle by particle.)
Sequence of UniProt P27548 (P27548 whole entry): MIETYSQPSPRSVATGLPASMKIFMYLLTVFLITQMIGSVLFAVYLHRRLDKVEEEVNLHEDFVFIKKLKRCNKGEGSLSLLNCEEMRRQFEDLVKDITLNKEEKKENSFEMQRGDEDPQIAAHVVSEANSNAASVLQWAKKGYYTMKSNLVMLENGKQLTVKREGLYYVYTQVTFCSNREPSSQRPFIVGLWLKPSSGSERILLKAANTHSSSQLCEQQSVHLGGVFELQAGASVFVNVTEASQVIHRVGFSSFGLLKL

As for “MR1, hamster anti-murine gp39 monoclonal antibody”, the percent positive cells was 61%.
